Measured values published in article PMC4193212.

How the values were obtained:
Assay in all cases: two-hybrid; split-ubiquitin yeast two-hybrid (DUALhunter), S. cerevisiae NMY51; bait as Cub fusion, prey as NubG fusion; growth on SD-LWHA with 45 and 55 mM 3-AT, 28°C, and β-galactosidase activity (X-gal, ONPG)
[1] = target: Opuntia streptacantha SK3 dehydrin OpsDHN1, full-length version, split-ubiquitin fusion (Opuntia streptacantha)
[2] = target: OpsDHN1-S(ΔH)K3, version without the histidine-rich motif (residues 1-111/138-248), split-ubiquitin fusion (Opuntia streptacantha)
[3] = target: OpsDHN1-SK2, C-terminal truncated version (residues 1-199), split-ubiquitin fusion (Opuntia streptacantha)
[4] = target: SV40 LargeT antigen (Cub) (SV40)

| β-galactosidase activity (two-hybrid reporter) (nmol ONP/min/mg protein) [1] | β-galactosidase activity (two-hybrid reporter) (nmol ONP/min/mg protein) [2] | β-galactosidase activity (two-hybrid reporter) (nmol ONP/min/mg protein) [3] | Substance | β-galactosidase activity (two-hybrid reporter) (nmol ONP/min/mg protein) [4] |
| --- | --- | --- | --- | --- |
| 146 |  |  | OpsDHN1-SK2, C-terminal truncated version (residues 1-199), split-ubiquitin fusion (domain or fragment) |  |
| 462 | 70.5 | 142 | Opuntia streptacantha SK3 dehydrin OpsDHN1, full-length version, split-ubiquitin fusion (natural protein) |  |
|  |  |  | tumor suppressor Δp53 (NubG) (domain or fragment) | 656 |
